Data: the supplement of paper PMC10567573

B1: FBXO3 (parent)
chain: GGFPIIRDQIFRYVHDPECVATTG

Variants of: B1
Test: protein stability index of a GFP-peptide fusion (GPS, HEK-293T) (PSI 1-6); higher = more stable
Settings: c terminus: a fixed tail appended
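Also: lentivirally expressed fusions sorted by FACS into six bins by GFP to DsRed ratio, PSI derived from sequencing read proportions per bin multiplied by bin number.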

Compared with G2E, P4Y is higher in protein stability index: 1.97 for the first, 2.75 for the second.

Compared with I10N, Q9V is lower in protein stability index: 3.3 for the first, 2.95 for the second.

Going from T23Y to I5T, the protein stability index rises from 1.61 to 2.28.

Going from C19I to P4C, the protein stability index rises from 1.55 to 2.23.

First: F3V
Second: G1P
The protein stability index of the first is lower: 2.38 for the first, 2.51 for the second.

First: R12N
Second: D16P
The protein stability index of the first is higher: 3.01 for the first, 2.47 for the second.

Compared with R7L, G2F is higher in protein stability index: 1.32 for the first, 2.03 for the second.

Compared with R12I, P17N is lower in protein stability index: 2.63 for the first, 2.61 for the second.

First: P17G
Second: Y13M
The protein stability index of the first is lower: 2.11 for the first, 2.88 for the second.

Going from F3C to C19R, the protein stability index falls from 2.14 to 1.79.

Going from I5V to F3N, the protein stability index rises from 1.58 to 2.78.

Compared with V14G, V20M is lower in protein stability index: 2.78 for the first, 1.79 for the second.

Going from Q9C to F11W, the protein stability index rises from 1.87 to 1.9.

First: I10Q
Second: G2Q
The protein stability index of the first is higher: 2.75 for the first, 1.25 for the second.

Going from A21L to P17E, the protein stability index rises from 1.45 to 2.34.

Going from E18I to I5G, the protein stability index rises from 1.92 to 2.32.

Compared with D16G, R7I is lower in protein stability index: 1.93 for the first, 1.69 for the second.

Compared with V20G, F11P is higher in protein stability index: 2.08 for the first, 3.38 for the second.

First: P17A
Second: C19D
The protein stability index of the first is lower: 1.84 for the first, 2.49 for the second.

First: R7M
Second: G1R
The protein stability index of the first is lower: 1.53 for the first, 2.16 for the second.

I6M and I6F are the same in protein stability index: 1.46 for the first, 1.46 for the second.

First: F11N
Second: A21M
The protein stability index of the first is higher: 3.67 for the first, 2.42 for the second.

First: I6W
Second: P17K
The protein stability index of the first is lower: 1.82 for the first, 2.47 for the second.

First: Y13K
Second: G1N
The protein stability index of the first is higher: 2.79 for the first, 2.4 for the second.

Going from E18M to C19N, the protein stability index falls from 1.79 to 1.74.

First: E18K
Second: F3P
The protein stability index of the first is lower: 2.38 for the first, 2.76 for the second.

First: T23E
Second: T22V
The protein stability index of the first is higher: 2.09 for the first, 1.67 for the second.

Compared with Q9I, G1V is lower in protein stability index: 1.9 for the first, 1.79 for the second.

Going from D16A to P4R, the protein stability index rises from 1.86 to 2.21.

Compared with I10D, T22H is lower in protein stability index: 3.6 for the first, 1.92 for the second.

First: A21I
Second: P4F
The protein stability index of the first is lower: 1.5 for the first, 2.3 for the second.

First: A21K
Second: V14H
The protein stability index of the first is lower: 1.62 for the first, 2.28 for the second.

Compared with G1F, G1W is higher in protein stability index: 1.55 for the first, 1.73 for the second.

Compared with V14P, E18G is lower in protein stability index: 3.32 for the first, 1.71 for the second.

First: C19Q
Second: D8Q
The protein stability index of the first is higher: 1.94 for the first, 1.7 for the second.

Compared with G1S, I5L is lower in protein stability index: 2.01 for the first, 1.64 for the second.

Compared with V20R, P17Q is higher in protein stability index: 1.63 for the first, 1.97 for the second.

Going from D16Q to G1L, the protein stability index falls from 2.25 to 1.64.

Compared with H15L, V14E is higher in protein stability index: 1.94 for the first, 3.51 for the second.

First: G24P
Second: G2C
The protein stability index of the first is higher: 1.82 for the first, 1.51 for the second.

Compared with V20D, I5Y is higher in protein stability index: 1.45 for the first, 2.26 for the second.

Going from Y13C to I6N, the protein stability index rises from 2.32 to 2.34.

First: V14A
Second: G2V
The protein stability index of the first is lower: 2.12 for the first, 2.5 for the second.

Going from V14Q to T23D, the protein stability index falls from 3.11 to 1.66.

Compared with F11M, H15T is lower in protein stability index: 2.78 for the first, 2.28 for the second.

Going from T23A to Q9N, the protein stability index rises from 1.8 to 2.29.

Going from I5M to G2I, the protein stability index falls from 2.71 to 2.2.

First: I5R
Second: R7K
The protein stability index of the first is lower: 1.86 for the first, 2.4 for the second.

Compared with A21S, Y13F is lower in protein stability index: 1.93 for the first, 1.75 for the second.

Going from T23M to F11K, the protein stability index rises from 1.73 to 2.85.

Compared with G1C, V20A is higher in protein stability index: 1.21 for the first, 2.24 for the second.

Compared with T22E, V14F is lower in protein stability index: 2.28 for the first, 1.92 for the second.

Compared with Y13N, V20P is lower in protein stability index: 3.58 for the first, 2.23 for the second.

Going from D16Y to F3H, the protein stability index falls from 2.26 to 2.21.

Going from R12Q to P17V, the protein stability index falls from 2.79 to 1.46.

Going from F3Y to I6P, the protein stability index rises from 1.57 to 2.35.

Going from I10C to C19H, the protein stability index falls from 2.19 to 1.57.

First: V20H
Second: Y13L
The protein stability index of the first is lower: 2.01 for the first, 2.51 for the second.

Going from R7C to V14K, the protein stability index rises from 2.35 to 2.83.

Going from Y13E to G24E, the protein stability index falls from 3.96 to 2.22.

Compared with T23H, Q9A is higher in protein stability index: 1.89 for the first, 2.13 for the second.

Compared with P17W, R7W is higher in protein stability index: 2.01 for the first, 2.21 for the second.

Compared with Q9D, H15R is lower in protein stability index: 2.83 for the first, 1.68 for the second.

Going from E18V to T22K, the protein stability index falls from 1.7 to 1.64.

Compared with G24F, A21R is lower in protein stability index: 1.93 for the first, 1.82 for the second.

Going from A21T to F11D, the protein stability index rises from 1.69 to 3.94.

First: I10K
Second: I10L
The protein stability index of the first is higher: 3.07 for the first, 2.17 for the second.

First: G1M
Second: F3W
The protein stability index of the first is lower: 1.64 for the first, 2.28 for the second.

Going from Y13D to D8I, the protein stability index falls from 3.85 to 3.17.

First: I5N
Second: R12Y
The protein stability index of the first is higher: 2.4 for the first, 1.64 for the second.

Going from T23P to I10A, the protein stability index rises from 1.71 to 2.38.

First: V20C
Second: I6S
The protein stability index of the first is higher: 2.84 for the first, 2.44 for the second.

First: G2R
Second: G24L
The protein stability index of the first is higher: 2.41 for the first, 1.96 for the second.

Compared with T23K, D16N is lower in protein stability index: 2.03 for the first, 1.8 for the second.

Compared with R12K, F3I is lower in protein stability index: 2.67 for the first, 2.29 for the second.

First: T22S
Second: V14R
The protein stability index of the first is lower: 1.63 for the first, 2.94 for the second.

Going from G2Y to I6D, the protein stability index rises from 1.78 to 3.56.

First: I6T
Second: P4I
The protein stability index of the first is higher: 2.76 for the first, 2.08 for the second.

Compared with F11S, V14S is lower in protein stability index: 3.45 for the first, 2.74 for the second.

First: T22A
Second: A21V
The protein stability index of the first is higher: 1.74 for the first, 1.36 for the second.

Compared with R7Y, D8A is higher in protein stability index: 1.87 for the first, 2.14 for the second.

Compared with R7H, G24H is lower in protein stability index: 2.56 for the first, 2.25 for the second.

First: T23G
Second: R7N
The protein stability index of the first is lower: 1.12 for the first, 2.83 for the second.

For I10V, the protein stability index was 2.36.
